# Data from patent US8846873B2, “Antibodies directed to GPNMB and uses thereof” (Celldex Therapeutics, Inc., priority 2004, dated 2014).
# T1: GPNMB (Homo sapiens, UniProt Q14956)
# T1 construct: made in house; host or cells: HEK 293
# T1 sequence (Q14956 23-492): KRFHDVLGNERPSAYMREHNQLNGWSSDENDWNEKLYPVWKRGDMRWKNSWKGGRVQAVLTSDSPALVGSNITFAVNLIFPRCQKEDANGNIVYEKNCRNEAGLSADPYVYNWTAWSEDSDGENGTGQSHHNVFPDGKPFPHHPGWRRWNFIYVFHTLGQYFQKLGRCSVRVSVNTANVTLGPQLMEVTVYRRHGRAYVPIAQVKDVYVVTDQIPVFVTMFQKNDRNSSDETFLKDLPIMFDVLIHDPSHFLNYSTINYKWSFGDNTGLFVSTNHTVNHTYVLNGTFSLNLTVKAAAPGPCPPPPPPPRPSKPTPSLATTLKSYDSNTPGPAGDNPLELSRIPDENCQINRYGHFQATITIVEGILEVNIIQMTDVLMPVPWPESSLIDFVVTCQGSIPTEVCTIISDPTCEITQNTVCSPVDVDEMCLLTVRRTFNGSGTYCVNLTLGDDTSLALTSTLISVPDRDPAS
# B1: Mab1.15.1 (protein, listed as Homo sapiens)
# chain: QVQLQESGPGLVKPSQTLSLTCTVSGGSISSFNYYWSWIRHHPGKGLEWIGYIYYSGSTYSNPSLKSRVTISVDTSKNQFSLTLSSVTAADTAVYYCARGYNWNYFDYWGQGTLVTVSSA
# Assays:
# [1] = system: SK-MEL-2 melanoma xenografts; test: Human SK-MEL-2 melanoma xenograft in athymic mice; type: in vivo; conditions: CR011-ONC-1, CR011-vcMMAE 5 mg/kg/treatment i.v. q4d x4, components at doses identical to those in the immunoconjugate
# Experimental: Test Animals: Five- to 6-week old athymic mice (CD-1 nu/nu females), used for human tumor xenografts, were obtained from Harlan Laboratories (Indianapolis, Ind.). Animals were housed in specific pathogen-free conditions, according to the guidelines of the Association for Assessment and Accreditation of Laboratory Animal Care International (AAALAC International). Test animals were provided pelleted food and water ad libitum and kept in a room with conditioned ventilation (HVAC), temperature (22°±2° C.), relative humidity (55%±15%), and photoperiod (12 hr). All studies were carried out with approved institutional animal care and use protocols.
# Human Melanoma Xenograft Models. The tumor inhibitory activity of the CR011-MMAE immunoconjugate was measured in an anti-tumor xenograft model using athymic mice, according to published methods (see Geran et al., Cancer Chemother. Rep. 3:1-104 (1972)). […] When tumors became established (10-20 days), the animals were pair-matched into groups (n=6 mice/group), and treatment was administered by intravenous injection (tail vein). […]
# The effects of treatment were monitored by repetitive tumor measurements across 2 diameters with Vernier calipers; tumor size (in mg) was calculated using a standard formula, (W^2×L)/2, assuming a specific gravity of 1.0. Tumor size and body weights were assessed twice weekly. […]
# GPNMB = target: T1, GPNMB; test: BiaCore 2000 biosensor binding of hybridoma supernatant mAb to GPNMB
# Experimental: Certain Hybridoma cell supernatants (29) were analyzed for binding to GPNMB by BiaCore® 2000 biosensor equipped with a research-grade CMS sensor chip. A 1:25 dilution of cell supernatant was passed over a protein A surface for 5 min followed by washing the surface for 10 mins. Subsequently, GPNMB was injected for 90 sec. over the surface at a concentration of 880 nM followed by dissociation. Double-referenced binding data were obtained by subtracting the signal from a control flow cell and subtracting the baseline drift of a buffer injected just prior to the antigen injection. GPNMB binding ddata for each mAb was normalized for the amount of mAb captured on each surface. Normalized, drift corrected responses were also measured. The sensorgrams were fit to a simple 1:1 kinetic model.
# [2] = mAb captured on protein A, GPNMB 880 nM, 1:1 kinetic model
molecule,measurement,setting,value
B1,tumor response,[1]; listed as CR011 antibody alone,lack of tumor growth inhibition
same,tumor response,[1]; listed as unconjugated CR011,lack of responses
same,binding to GPNMB,GPNMB; 1:25 dilution of cell supernatant,strong binding
same,Kd,GPNMB; [2],52 nM
same,ka,GPNMB; [2],16524 M⁻¹ s⁻¹
same,kd,GPNMB; [2],0.000855 s⁻¹
